Results reported in PMC6199243 (Scientific Reports, 2018).

Biological target: T1, a-subunit of recombinant Enterococcus hirae V-ATPase (Enterococcus hirae, UniProt P43439 1-664)
T1 construct: a-subunit of Enterococcus hirae V-ATPase (NtpI); In the map it is represented by a T. thermophilus model (PDB 5GAS) and a homology model of its C-terminal half; also called Eh a-subunit; transmembrane a-subunit; source: E. coli, expressed from pTR19-EhV-ATPase, purified as part of the whole r-EhV-ATPase (Ni-NTA, Superdex 200) in 0.05% DDM
T1 sequence (looked up): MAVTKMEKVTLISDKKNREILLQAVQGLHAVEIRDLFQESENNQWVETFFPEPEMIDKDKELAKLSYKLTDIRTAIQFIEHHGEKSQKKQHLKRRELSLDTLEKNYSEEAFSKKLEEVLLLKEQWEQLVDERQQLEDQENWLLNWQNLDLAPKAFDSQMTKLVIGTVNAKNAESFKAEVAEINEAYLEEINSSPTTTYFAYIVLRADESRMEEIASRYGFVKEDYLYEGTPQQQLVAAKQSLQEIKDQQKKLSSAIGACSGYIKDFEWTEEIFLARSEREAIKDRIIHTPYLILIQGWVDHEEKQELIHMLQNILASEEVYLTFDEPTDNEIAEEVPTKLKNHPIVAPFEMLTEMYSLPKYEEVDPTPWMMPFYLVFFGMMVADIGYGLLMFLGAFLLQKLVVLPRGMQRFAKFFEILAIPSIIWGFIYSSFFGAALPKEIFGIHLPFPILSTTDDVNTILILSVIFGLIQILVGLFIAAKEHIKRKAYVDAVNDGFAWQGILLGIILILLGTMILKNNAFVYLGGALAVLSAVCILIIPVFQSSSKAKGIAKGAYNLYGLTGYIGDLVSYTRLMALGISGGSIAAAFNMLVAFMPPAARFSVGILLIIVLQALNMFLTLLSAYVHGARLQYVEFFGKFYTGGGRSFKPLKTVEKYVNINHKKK
Test: cryo-EM structure; Zernike phase plate single-particle cryo-EM of r-EhV-ATPase in 0.05% DDM, 17.3 Å; earlier atomic models and homology models fitted into the map
Details: both partners purified

B1: EG complex (peripheral stalk) of recombinant Enterococcus hirae V-ATPase (complex)
chain 1: MPIDKIITQINETAQLERASFEEMKRKEIDQKFEVKKWQIEADFQKEKASKLEEIERSYRQLRNKQKMQVKQEILNAKQEVLQRLFTEATLQLENEPKEEQLALMKQMIQTLPINGTARLIPGEKSADILTPAVIAEWNEELPFELIREDFTEKAQAGLIIDDAGIQYNFLFSHLIKEIQETMSAEIAKELFD
chain 2: MARILTRIKEAEENNQKKEEQVKAELAQYEQLKNNELIDLNKEFQERLTKLMKEKEKNEEEVTEDEQHKLELILEQFRQKVLEIEKTYLEKEEEEIAKKKNLTNEIIERMKQNNGCH
notes: E-subunit of Enterococcus hirae V-ATPase (NtpE); G-subunit of Enterococcus hirae V-ATPase (NtpF); Two EG peripheral stalks stand in the whole enzyme; The models fitted into the map for EG are of T. thermophilus (PDB 3K5B, 3V6I), not of E. hirae; also called peripheral stalks; source: E. coli, expressed from pTR19-EhV-ATPase, purified as part of the whole r-EhV-ATPase (Ni-NTA, Superdex 200) in …
- binding result: binds
